According to the RNAGym collection of RNA variant scans (doi:10.7554/elife.80360):

B1: HDV Ribozyme (parent)
chain: GGCCGGCAUGGUCCCAGCCUCCUCGCUGGCGCCGGCUGGGCAACAUUCCGAGGGGACCGUCCCCUCGGUAAUGGCGAAUGGGACCCA

Variants of: B1
Experiment: self-cleavage, relative activity (ratio to wild type); higher = more cleavage; co-transcriptional

| Variant | self-cleavage |
| --- | --- |
| C4U C61G | 0.394 |
| G5C G25U | 0.0475 |
| C4U G76C | 0.984 |
| C4U G76U | 0.831 |
| C4U C48U | 0.931 |
| C4U U69G | 0.831 |
| C4U U69C | 0.755 |
| C4U C66A | 0.755 |
| C4U C66U | 0.704 |
| G5A U79C | 0.0252 |
| G5A C49G | 0.237 |
| C4U G10A | 0.35 |
| C4U G52C | 0.776 |
| C4U U72G | 0.361 |
| C4U G28C | 0 |
| C4U G74U | 0.163 |
| C4U C14G | 0.369 |
| G5C G10U | 0.0489 |
| G5C G10C | 0 |
| G5A C85U | 0.142 |
| G5C C14A | 0.0692 |
| G5C C14U | 0.506 |
| C4U G39A | 0.136 |
| C4U G39U | 0.58 |

| Variant | self-cleavage |
| --- | --- |
| G5C G80U | 0.124 |
| C4U G34A | 0.772 |
| G5C G50A | 0.302 |
| G5C U47A | 0.158 |
| G5C G38U | 0 |
| C4U U46A | 0.485 |
| C4U U46G | 0.277 |
| G5A U47G | 0.0875 |
| G5A C21A | 0.0923 |
| G5A C22U | 0.0831 |
| G5A C22G | 0.0554 |
| C4U A77C | 0.0978 |
| G5C C21A | 0.0831 |
| C4U G35C | 0.119 |
| C4U G35A | 0.173 |
| G5A A51C | 0.312 |
| G5C C41A | 0.0665 |
| G5C G17A | 0.0852 |
| G5C G17U | 0 |
| G5C G81A | 0.104 |
| G5C U9A | 0.138 |
| G5C G73U | 0.0504 |
| C4U A71U | 0.776 |
| G5C U65A | 0.246 |

| Variant | self-cleavage |
| --- | --- |
| G5A G76A | 0.229 |
| G5C U79G | 0 |
| C4U G59A | 0.589 |
| C4U G59U | 0.973 |
| G5A U9A | 0.332 |
| C4U G6A | 0.532 |
| G5C C22A | 0 |
| G5A U69G | 0.353 |
| G5A C86G | 0.13 |
| G5A G40A | 0.0992 |
| G5U A43G | 0 |
| G5C G11C | 0.196 |
| C4U C18U | 0.323 |
| G5C G31C | 0.0519 |
| G5C G31A | 0.0755 |
| C4U U23C | 0.571 |
| G5A G81U | 0 |
| G5C A42G | 0 |
| C4U C32U | 0.525 |
| G5C G29A | 0.147 |
| G5A A77U | 0 |
| G5A A77C | 0.0504 |
| C4U U79G | 0.185 |
| C4U C58A | 0.852 |

| Variant | self-cleavage |
| --- | --- |
| C4U C58U | 1.15 |
| G5C A8U | 0.0665 |
| G5C A8G | 0 |
| C4U C64U | 0.695 |
| C4U C64A | 0.639 |
| G5C G55C | 0.0898 |
| G5C C18U | 0.142 |
| G5C A51G | 0.262 |
| C4U C13G | 0.0449 |
| G5C G59A | 0.344 |
| C4U G53U | 0.831 |
| G5A G39A | 0.181 |
| G5A G39U | 0.101 |
| C4U C85A | 0.341 |
| G5C A77U | 0 |
| G5C C86U | 0.172 |
| G5C C86G | 0.113 |
| G5A C36G | 0 |
| G5A C63U | 0.155 |
| G5A G59A | 0.407 |
| G5A C33G | 0.0615 |
| G5C C33A | 0.26 |
| G5C C33G | 1.43 |
| G5A A45G | 0.196 |

| Variant | self-cleavage |
| --- | --- |
| G5C C84U | 0.119 |
| G5A U46G | 0.161 |
| G5A G25A | 0 |
| G5C C63U | 0.0437 |
| G5C C63A | 0.383 |
| G5C C63G | 0 |
| G5C A16C | 0.0875 |
| G5A C30G | 0.0426 |
| G5A C30A | 0.109 |
| G5A G11A | 0.101 |
| G5A G11C | 0.214 |
| G5A U37A | 0 |
| C4U C22A | 0.188 |
| G5A C13A | 0.0369 |
| C4U G80A | 0.242 |
| C4U G25C | 0.0773 |
| G5C C64G | 0.0462 |
| G5A A78G | 0.178 |
| G5A A78C | 0.106 |
| C4U C84A | 0.712 |
| C4U C84U | 0.514 |
| G5A G17A | 0.172 |
| G5C C85U | 0.277 |
| C4U G5C | 0.166 |

| Variant | self-cleavage |
| --- | --- |
| C4U G38C | 0.116 |
| G5C G82A | 0.123 |
| G5A G10U | 0.188 |
| G5C C48G | 0.0755 |
| C4U C41G | 0.374 |
| G5C C66G | 0.151 |
| G5C C36U | 0.0978 |
| C4U C26G | 0.72 |
| G5C G54C | 0.158 |
| G5C G54U | 0.217 |
| G5C C26G | 0.138 |
| C4U A83C | 0.111 |
| G5C G53C | 0.237 |
| C4U U60A | 0.831 |
| G5A G50U | 0.143 |
| G5A G55A | 0.237 |
| C4U C19A | 0.0678 |
| G5A C7G | 0.0875 |
| C4U G54U | 0.789 |
| C4U G54A | 0.791 |
| C4U A70G | 0.541 |
| G5C G74A | 0.0898 |
| G5A G34A | 0.0978 |
| G5A G34C | 0.101 |

| Variant | self-cleavage |
| --- | --- |
| G5A A87G | 0.252 |
| G5C A56U | 0.314 |
| G5C A56G | 0.237 |
| C4U C24U | 0.237 |
| G5C C58A | 0.162 |
| G5A C24G | 0 |
| C4U G11U | 0.219 |
| G5C C75A | 0.0536 |
| C4U U37C | 0.772 |
| G5C C44G | 0 |
| G5C U69C | 0.396 |
| C4U C57A | 1.08 |
| G5C A45C | 0.0639 |
| G5U A8C | 0.0875 |
| C4U G81U | 0.0723 |
| C4U G81A | 0.136 |
| G5A C26U | 0.511 |
| G5A C62G | 0.0594 |
| G5A G31A | 0 |
| G5C U37G | 0.111 |
| G5C C24A | 0.0811 |
| G5C U60G | 0.185 |
| G5C G68U | 0.0615 |
